According to publication PMC3979393 (2014):

Legend:
[1] = cell-surface biotinylation, avidin pulldown, anti-Myc blot; settings: glycan lost; control: wild-type DDR1b, no collagen
[2] = anti-Myc blot of surface, intracellular and lysate fractions; settings: glycan lost; control: wild-type DDR1b
[3] = BS3 cross-linking of lysates, IP, anti-DDR1 blot; settings: glycan lost; control: wild-type DDR1b, no collagen
[4] = reversible biotinylation endocytosis assay, COS1; settings: glycan lost; control: wild-type DDR1b
Rat tail collagen type I = Rat tail collagen type I (rat, UniProt P02454 152-1207; P02466 86-1125); assay: ELISA
Rat tail collagen type I, sequence (P02454 152-1207, chain 1 of 2): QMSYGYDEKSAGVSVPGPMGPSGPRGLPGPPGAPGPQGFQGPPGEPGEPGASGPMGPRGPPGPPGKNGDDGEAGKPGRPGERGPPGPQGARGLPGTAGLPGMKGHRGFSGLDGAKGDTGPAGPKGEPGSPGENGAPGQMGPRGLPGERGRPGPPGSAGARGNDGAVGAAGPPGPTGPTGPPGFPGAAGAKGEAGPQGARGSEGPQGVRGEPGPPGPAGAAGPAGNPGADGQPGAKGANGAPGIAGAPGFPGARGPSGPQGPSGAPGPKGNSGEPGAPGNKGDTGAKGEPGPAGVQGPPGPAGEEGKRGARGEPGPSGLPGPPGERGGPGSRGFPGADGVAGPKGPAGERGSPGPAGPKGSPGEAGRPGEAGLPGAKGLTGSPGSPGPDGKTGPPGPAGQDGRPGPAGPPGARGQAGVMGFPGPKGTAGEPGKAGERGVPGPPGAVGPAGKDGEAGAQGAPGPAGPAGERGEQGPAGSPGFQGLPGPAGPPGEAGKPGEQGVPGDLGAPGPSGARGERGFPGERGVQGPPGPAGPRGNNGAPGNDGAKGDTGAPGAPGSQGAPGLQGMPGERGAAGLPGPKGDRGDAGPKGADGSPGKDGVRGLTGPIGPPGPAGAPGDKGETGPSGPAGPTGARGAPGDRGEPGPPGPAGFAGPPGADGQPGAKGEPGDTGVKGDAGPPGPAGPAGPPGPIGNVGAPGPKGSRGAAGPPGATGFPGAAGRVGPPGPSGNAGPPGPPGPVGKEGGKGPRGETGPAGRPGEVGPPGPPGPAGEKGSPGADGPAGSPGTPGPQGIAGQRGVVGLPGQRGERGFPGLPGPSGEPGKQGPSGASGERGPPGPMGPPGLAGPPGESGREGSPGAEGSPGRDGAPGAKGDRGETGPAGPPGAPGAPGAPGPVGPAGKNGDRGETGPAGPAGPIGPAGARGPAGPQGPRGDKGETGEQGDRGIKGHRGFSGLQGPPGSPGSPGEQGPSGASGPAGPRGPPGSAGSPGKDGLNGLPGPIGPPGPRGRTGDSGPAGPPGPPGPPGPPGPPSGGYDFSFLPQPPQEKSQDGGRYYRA
Rat tail collagen type I, sequence (P02466 86-1125, chain 2 of 2): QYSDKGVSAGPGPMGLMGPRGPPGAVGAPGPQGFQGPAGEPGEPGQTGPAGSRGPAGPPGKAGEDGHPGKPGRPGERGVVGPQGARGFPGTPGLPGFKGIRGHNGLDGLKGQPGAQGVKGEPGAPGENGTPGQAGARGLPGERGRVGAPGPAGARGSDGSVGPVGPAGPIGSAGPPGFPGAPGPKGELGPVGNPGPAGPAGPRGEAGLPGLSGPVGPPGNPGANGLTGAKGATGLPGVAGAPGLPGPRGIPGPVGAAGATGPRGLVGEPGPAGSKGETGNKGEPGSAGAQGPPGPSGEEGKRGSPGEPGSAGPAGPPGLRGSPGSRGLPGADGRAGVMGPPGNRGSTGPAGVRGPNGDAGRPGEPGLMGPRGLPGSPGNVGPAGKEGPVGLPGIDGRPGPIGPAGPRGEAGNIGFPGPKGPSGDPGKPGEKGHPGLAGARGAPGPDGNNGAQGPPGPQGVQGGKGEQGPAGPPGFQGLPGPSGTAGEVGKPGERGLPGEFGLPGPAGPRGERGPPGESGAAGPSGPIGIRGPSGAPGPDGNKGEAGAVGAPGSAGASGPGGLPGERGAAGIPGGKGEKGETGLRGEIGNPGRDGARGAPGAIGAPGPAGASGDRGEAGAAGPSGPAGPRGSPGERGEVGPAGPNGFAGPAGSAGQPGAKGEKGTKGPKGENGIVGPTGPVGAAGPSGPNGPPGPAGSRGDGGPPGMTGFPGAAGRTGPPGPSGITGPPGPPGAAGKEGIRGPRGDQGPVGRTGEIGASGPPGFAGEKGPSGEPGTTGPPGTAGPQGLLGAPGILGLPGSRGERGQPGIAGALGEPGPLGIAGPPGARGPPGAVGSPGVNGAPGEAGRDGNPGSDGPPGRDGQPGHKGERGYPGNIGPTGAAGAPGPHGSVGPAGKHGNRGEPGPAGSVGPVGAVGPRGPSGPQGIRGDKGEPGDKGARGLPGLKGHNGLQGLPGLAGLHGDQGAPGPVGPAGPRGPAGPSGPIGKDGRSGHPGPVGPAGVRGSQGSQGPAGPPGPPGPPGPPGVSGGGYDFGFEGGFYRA

| Binder | localisation_or_trafficking [1] | expression_or_secretion [2] | oligomerisation [3] | localisation_or_trafficking [4] | Kd (Rat tail collagen type I) |
| --- | --- | --- | --- | --- | --- |
| Discoidin domain receptor 1 (DDR1b): N211Q (protein) parent chain: MGPEALSSLLLLLLVASGDADMKGHFDPAKCRYALGMQDRTIPDSDISASSSWSDSTAARHSRLESSDGDGAWCPAGSVFPKEEEYLQVDLQRLHLVALVGTQGRHAGGLGKEFSRSYRLRYSRDGRRWMGWKDRWGQEVISGNEDPEGVVLKDLGPPMVARLVRFYPRADRVMSVCLRVELYGCLWRDGLLSYTAPVGQTMYLSEAVYLNDSTYDGHTVGGLQYGGLGQLADGVVGLDDFRKSQELRVWPGYDYVGWSNHSFSSGYVEMEFEFDRLRAFQAMQVHCNNMHTLGARLPGGVECRFRRGPAMAWEGEPMRHNLGGNLGDPRARAVSVPLGGRVARFLQCRFLFAGPWLLFSEISFISDVVNNSSPALGGTFPPAPWWPPGPPPTNFSSLELEPRGQQPVAKAEGSPTAILIGCLVAIILLLLLIIALMLWRLHWRRLLSKAERRVLEEELTVHLSVPGDTILINNRPGPREPPPYQEPRPRGNPPHSAPCVPNGSALLLSNPAYRLLLATYARPPRGPGPPTPAWAKPTNTQAYSGDYMEPEKPGAPLLPPPPQNSVPHYAEADIVTLQGVTGGNTYAVPALPPGAVGDGPPRVDFPRSRLRFKEKLGEGQFGEVHLCEVDSPQDLVSLDFPLNVRKGHPLLVAVKILRPDATKNARNDFLKEVKIMSRLKDPNIIRLLGVCVQDDPLCMITDYMENGDLNQFLSAHQLEDKAAEGAPGDGQAAQGPTISYPMLLHVAAQIASGMRYLATLNFVHRDLATRNCLVGENFTIKIADFGMSRNLYAGDYYRVQGRAVLPIRWMAWECILMGKFTTASDVWAFGVTLWEVLMLCRAQPFGQLTDEQVIENAGEFFRDQGRQVYLSRPPACPQGLYELMLRCWSRESEQRPPFSQLHRFLAEDALNTV | no change | no change | increases | decreases | – |
| DDR1b ectodomain (ECD) harboring an IgG2 Fc fragment at the C-terminal end, N211Q (Fc fusion) DADMKGHFDPAKCRYALGMQDRTIPDSDISASSSWSDSTAARHSRLESSDGDGAWCPAGSVFPKEEEYLQVDLQRLHLVALVGTQGRHAGGLGKEFSRSYRLRYSRDGRRWMGWKDRWGQEVISGNEDPEGVVLKDLGPPMVARLVRFYPRADRVMSVCLRVELYGCLWRDGLLSYTAPVGQTMYLSEAVYLQDSTYDGHTVGGLQYGGLGQLADGVVGLDDFRKSQELRVWPGYDYVGWSNHSFSSGYVEMEFEFDRLRAFQAMQVHCNNMHTLGARLPGGVECRFRRGPAMAWEGEPMRHNLGGNLGDPRARAVSVPLGGRVARFLQCRFLFAGPWLLFSEISFISDVVNNSSPALGGTFPPAPWWPPGPPPTNFSSLELEPRGQQPVAKAEGSPT | – | – | – | – | 4.75 nM |
| DDR1b ectodomain (ECD) harboring an IgG2 Fc fragment at the C-terminal end, wild type (Fc fusion) DADMKGHFDPAKCRYALGMQDRTIPDSDISASSSWSDSTAARHSRLESSDGDGAWCPAGSVFPKEEEYLQVDLQRLHLVALVGTQGRHAGGLGKEFSRSYRLRYSRDGRRWMGWKDRWGQEVISGNEDPEGVVLKDLGPPMVARLVRFYPRADRVMSVCLRVELYGCLWRDGLLSYTAPVGQTMYLSEAVYLNDSTYDGHTVGGLQYGGLGQLADGVVGLDDFRKSQELRVWPGYDYVGWSNHSFSSGYVEMEFEFDRLRAFQAMQVHCNNMHTLGARLPGGVECRFRRGPAMAWEGEPMRHNLGGNLGDPRARAVSVPLGGRVARFLQCRFLFAGPWLLFSEISFISDVVNNSSPALGGTFPPAPWWPPGPPPTNFSSLELEPRGQQPVAKAEGSPT | – | – | – | – | 3.33 nM |
